Common to all, as to test: BLI; Octet RED; antibody (IgG, 10 µg/mL) immobilised on anti-human IgG Fc capture biosensors; antigen as analyte, six twofold dilutions from 2 µM (gp120 monomers) or 500 nM (BG505.SOSIP.664 trimer); 1X PBS, 0.1% BSA, 0.005% Tween-20, 0.02% sodium azide; 23°C; association 180 s, dissociation 180 s; double reference subtraction; global 1:1 fit
(In general: BLI is a label-free optical method that tracks binding on a fibre tip over time.)

The target of test [1] is ∆CDR1VH heavy chain chimera paired with the mature light chain (human).
In test [2] the target is mature heavy chain paired with the inferred naive light chain (matVH 0VL) (human).
Test [3] addresses mature heavy chain paired with Int5∆FWR2-FWR3VL (human).

∆CDR1VH heavy chain chimera paired with the mature light chain (human), sequence (light, as listed by the source): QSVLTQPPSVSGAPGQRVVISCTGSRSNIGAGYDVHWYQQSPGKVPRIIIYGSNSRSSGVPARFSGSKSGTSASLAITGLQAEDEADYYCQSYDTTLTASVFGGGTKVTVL
mature heavy chain paired with Int5∆FWR2-FWR3VL (human), sequence (heavy, as listed by the source): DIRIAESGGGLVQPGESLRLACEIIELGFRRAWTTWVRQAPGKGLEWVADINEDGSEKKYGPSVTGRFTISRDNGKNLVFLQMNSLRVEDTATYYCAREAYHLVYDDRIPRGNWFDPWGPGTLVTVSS
mature heavy chain paired with the inferred naive light chain (matVH 0VL) (human), sequence (heavy, as listed by the source): as above

The Kd is the constant that tells how readily two partners part at equilibrium. “BG505.SOSIP.664 trimer (from UniProt Q2N0S6 1-860; Q2N0S6 1-860) (complex)”: the Kd was 40.6 nM in test [1], 89.6 nM in test [2] and 1300 nM in test [3].
